Each substance was assayed against gbrap_human GABARAP (UniProt O95166).
Chain of gbrap_human GABARAP (O95166 whole entry): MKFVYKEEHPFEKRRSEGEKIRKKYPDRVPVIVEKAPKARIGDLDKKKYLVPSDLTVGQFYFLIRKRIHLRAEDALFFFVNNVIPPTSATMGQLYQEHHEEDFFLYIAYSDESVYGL

Substance | effect of a mutation on the interaction
Pericentriolar material 1 protein (Homo sapiens), Q15154 K1957C | with no effect
Pericentriolar material 1 protein (Homo sapiens), Q15154 K1957D | with no effect
Pericentriolar material 1 protein (Homo sapiens), Q15154 K1957E | with no effect
Pericentriolar material 1 protein (Homo sapiens), Q15154 K1957F | with no effect
Pericentriolar material 1 protein (Homo sapiens), Q15154 K1957G | with no effect
Pericentriolar material 1 protein (Homo sapiens), Q15154 K1957H | with no effect
Pericentriolar material 1 protein (Homo sapiens), Q15154 K1957I | with no effect
Pericentriolar material 1 protein (Homo sapiens), Q15154 K1957L | with no effect
Pericentriolar material 1 protein (Homo sapiens), Q15154 K1957M | with no effect
Pericentriolar material 1 protein (Homo sapiens), Q15154 K1957N | with no effect
Pericentriolar material 1 protein (Homo sapiens), Q15154 K1957P | with no effect
Pericentriolar material 1 protein (Homo sapiens), Q15154 K1957Q | with no effect
Pericentriolar material 1 protein (Homo sapiens), Q15154 K1957R | with no effect
Pericentriolar material 1 protein (Homo sapiens), Q15154 K1957S | with no effect
Pericentriolar material 1 protein (Homo sapiens), Q15154 K1957T | with no effect
Pericentriolar material 1 protein (Homo sapiens), Q15154 K1957V | with no effect
Pericentriolar material 1 protein (Homo sapiens), Q15154 K1957W | with no effect
Pericentriolar material 1 protein (Homo sapiens), Q15154 K1957Y | with no effect
Pericentriolar material 1 protein (Homo sapiens), Q15154 K1965A | with no effect
Pericentriolar material 1 protein (Homo sapiens), Q15154 K1965C | with no effect
Pericentriolar material 1 protein (Homo sapiens), Q15154 K1965D | with no effect
Pericentriolar material 1 protein (Homo sapiens), Q15154 K1965E | with no effect
Pericentriolar material 1 protein (Homo sapiens), Q15154 K1965F | with no effect

Substance | effect of a mutation on the interaction
Pericentriolar material 1 protein (Homo sapiens), Q15154 K1965G | disrupting interaction strength
Pericentriolar material 1 protein (Homo sapiens), Q15154 K1965H | with no effect
Pericentriolar material 1 protein (Homo sapiens), Q15154 K1965I | with no effect
Pericentriolar material 1 protein (Homo sapiens), Q15154 K1965L | with no effect
Pericentriolar material 1 protein (Homo sapiens), Q15154 K1965M | with no effect
Pericentriolar material 1 protein (Homo sapiens), Q15154 K1965N | with no effect
Pericentriolar material 1 protein (Homo sapiens), Q15154 K1965P | disrupting interaction strength
Pericentriolar material 1 protein (Homo sapiens), Q15154 K1965Q | with no effect
Pericentriolar material 1 protein (Homo sapiens), Q15154 K1965R | with no effect
Pericentriolar material 1 protein (Homo sapiens), Q15154 K1965S | with no effect
Pericentriolar material 1 protein (Homo sapiens), Q15154 K1965T | with no effect
Pericentriolar material 1 protein (Homo sapiens), Q15154 K1965V | with no effect
Pericentriolar material 1 protein (Homo sapiens), Q15154 K1965W | with no effect
Pericentriolar material 1 protein (Homo sapiens), Q15154 K1965Y | with no effect
Pericentriolar material 1 protein (Homo sapiens), Q15154 K1972A | with no effect
Pericentriolar material 1 protein (Homo sapiens), Q15154 K1972C | with no effect
Pericentriolar material 1 protein (Homo sapiens), Q15154 K1972D | with no effect
Pericentriolar material 1 protein (Homo sapiens), Q15154 K1972E | with no effect
Pericentriolar material 1 protein (Homo sapiens), Q15154 K1972F | with no effect
Pericentriolar material 1 protein (Homo sapiens), Q15154 K1972G | with no effect
Pericentriolar material 1 protein (Homo sapiens), Q15154 K1972H | with no effect
Pericentriolar material 1 protein (Homo sapiens), Q15154 K1972I | with no effect
Pericentriolar material 1 protein (Homo sapiens), Q15154 K1972L | with no effect

— IntAct's records for PubMed 28712572
